Assay results published in article PMC7472415 (Viruses, 2020).

What was measured:
[1] = target: YFP-D/NP_TAIL, yellow fluorescent protein fused to the nucleoprotein tail of D/bovine/France/2986/20 (influenza D virus D/bovine/France/2986/2012); assay: SPR
[2] = target: importin-α7 (Homo sapiens) (UniProt O60684); details: cited from earlier work
[3] = target: T1, human importin-α3 without its importin-β binding (IBB) domain (residues 64 to 521) (human, UniProt O00629 64-521); assay: SPR; details: both partners purified
T1 construct: also called ΔIBB importin-α3; Imp-α3
T1 sequence (looked up): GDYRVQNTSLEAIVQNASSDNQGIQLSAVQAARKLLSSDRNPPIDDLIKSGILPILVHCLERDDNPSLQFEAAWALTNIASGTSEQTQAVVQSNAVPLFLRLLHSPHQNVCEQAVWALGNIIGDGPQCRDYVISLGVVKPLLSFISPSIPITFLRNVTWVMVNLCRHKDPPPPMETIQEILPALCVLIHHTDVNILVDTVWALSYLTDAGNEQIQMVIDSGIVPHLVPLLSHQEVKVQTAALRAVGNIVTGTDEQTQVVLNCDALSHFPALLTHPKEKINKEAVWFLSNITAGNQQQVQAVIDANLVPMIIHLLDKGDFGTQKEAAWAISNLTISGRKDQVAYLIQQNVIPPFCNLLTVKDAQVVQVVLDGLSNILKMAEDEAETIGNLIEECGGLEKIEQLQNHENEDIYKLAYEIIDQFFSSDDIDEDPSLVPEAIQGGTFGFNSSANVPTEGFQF

[4] = target: T2, human importin-α5 without its importin-β binding (IBB) domain (residues 66 to 538) (human, UniProt P52294 66-538); assay: SPR; details: both partners purified
T2 construct: also called ΔIBB importin-α5; Imp-α5
T2 sequence (P52294 66-538): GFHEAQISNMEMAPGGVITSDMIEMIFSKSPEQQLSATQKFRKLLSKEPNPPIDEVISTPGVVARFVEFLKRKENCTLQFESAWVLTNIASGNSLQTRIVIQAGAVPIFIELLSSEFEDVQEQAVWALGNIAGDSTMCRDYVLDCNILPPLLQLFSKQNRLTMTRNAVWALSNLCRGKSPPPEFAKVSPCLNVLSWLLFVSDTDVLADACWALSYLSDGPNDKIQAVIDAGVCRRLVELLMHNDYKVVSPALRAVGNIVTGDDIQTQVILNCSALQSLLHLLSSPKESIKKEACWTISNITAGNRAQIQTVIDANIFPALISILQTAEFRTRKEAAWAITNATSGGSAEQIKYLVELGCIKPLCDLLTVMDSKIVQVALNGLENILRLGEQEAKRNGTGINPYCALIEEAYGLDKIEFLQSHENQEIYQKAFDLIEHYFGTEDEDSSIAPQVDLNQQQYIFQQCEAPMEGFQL

[5] = target: T3, human importin-α7 without its importin-β binding (IBB) domain (residues 58 to 536) (human, UniProt O60684 58-536); assay: SPR; details: both partners purified
T3 construct: also called ΔIBB importin-α7; Imp-α7
T3 sequence (O60684 58-536): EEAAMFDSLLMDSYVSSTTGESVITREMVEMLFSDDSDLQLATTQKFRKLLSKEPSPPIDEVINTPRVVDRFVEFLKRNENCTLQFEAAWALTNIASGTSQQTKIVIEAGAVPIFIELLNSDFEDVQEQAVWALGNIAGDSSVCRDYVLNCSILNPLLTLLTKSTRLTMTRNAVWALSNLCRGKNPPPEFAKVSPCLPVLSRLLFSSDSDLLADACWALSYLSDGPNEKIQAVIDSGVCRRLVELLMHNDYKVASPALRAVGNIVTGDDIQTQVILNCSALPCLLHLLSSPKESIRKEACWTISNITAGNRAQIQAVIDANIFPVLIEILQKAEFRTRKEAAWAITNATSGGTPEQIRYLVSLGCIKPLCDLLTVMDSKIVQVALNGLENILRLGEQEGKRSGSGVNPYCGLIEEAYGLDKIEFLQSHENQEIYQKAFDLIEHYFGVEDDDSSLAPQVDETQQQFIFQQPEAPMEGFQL

[6] = target: T1, human importin-α3 without its …; assay: SPR; details: both partners purified; remark: listed apart in the source
[7] = target: T2, human importin-α5 without its …; assay: SPR; details: both partners purified; remark: listed apart in the source
[8] = target: T3, human importin-α7 without its …; assay: SPR; details: both partners purified; remark: listed apart in the source

human importin-α7 without its importin-β binding (IBB) domain (residues 58 to 536) (from UniProt O60684 58-536) (domain or fragment)
Kd [1]: 29 nM | koff [1]: 0.104 s⁻¹ | kon [1]: 5e+06 M⁻¹ s⁻¹

human importin-α5 without its importin-β binding (IBB) domain (residues 66 to 538) (from UniProt P52294 66-538) (domain or fragment)
Kd [1]: 21 nM | koff [1]: 0.5 s⁻¹ | kon [1]: 1.1e+06 M⁻¹ s⁻¹

human importin-α3 without its importin-β binding (IBB) domain (residues 64 to 521) (from UniProt O00629 64-521) (domain or fragment)
Kd [1]: 22 nM | koff [1]: 0.007 s⁻¹ | kon [1]: 2.8e+06 M⁻¹ s⁻¹

influenza B nucleoprotein NPTAIL (30-71) (from UniProt P13885)
Kd [2]: 844 nM

B1: B/NP_TAIL-YFP, nucleoprotein tail of B/Memphis/13/03 (residues 1 to 71) fused to yellow fluorescent (domain or fragment)
chain: MSNMDIDGINTGTIDKTPEEITSGTSGTTRPIIRPATLAPPSNKRTRNPSPERATTSSEADVGRKTQKKQT
Kd [3]: 308 ± 106 nM | Kd [4]: 770 ± 24 nM | Kd [5]: 405 ± 5 nM | koff [6]: > 1 s⁻¹ | kon [6]: > 1e+07 M⁻¹ s⁻¹ | koff [7]: > 1 s⁻¹ | kon [7]: > 1e+07 M⁻¹ s⁻¹ | koff [8]: > 1 s⁻¹ | kon [8]: > 1e+07 M⁻¹ s⁻¹
